This data set can be described thus: self-splicing fitness, log relative to wild type (ln ratio); higher = more splicing; Tetrahymena group I intron in knt gene, E. coli kanamycin selection, DiMSum; sequences stand for … in CUCUCU…GGAGGGAAAAGUUAUCAGGCAUGCACCUGGUAGCUAGUCUUUAAACCAAUAGAUUGCAUCGGUUUAAAAGGCAAGACCGUCAAAUUGCGGGAAAGGGGUCAACAGCCGUUCAGUACCAAGUCUCAGGGGAAACUUUGAGAUGGCCUUGCAAAGGGUAUGGUAAUAAGCUGACGGACAUGGUCCUAACCACGCAGCCAAGUCCUAAGUCAACAGAUCUUCUGUUGAUAUGGAUGCAGUUCACAGACUAAAUGUCGGUCGGGGAAGAUGUAUUCUUCUCAUAAGAUAUAGUCGGACCUCUCCUUAAUGGGAGCUAGCGGAUGAAGUGAUGCAACACUGGAGCCGCUGGGAACUAAUUUGUAUGCGAAAGUAUAUUGAUUAGUUUUGGAGUACUCGUGGUCG
In outline: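 Colonies from six replicate transformations of E. coli BL21(DE3) were pooled and amplicon-sequenced on an Illumina HiSeq 2500. The library placed an intron with all eight P1ex-region nucleotides randomised inside the knt kanamycin-resistance gene on pET-22b(+), and cells grew overnight at 37°C or 30°C on LB agar with or without 25 μg/mL kanamycin (plus 100 μg/mL carbenicillin, 50 μM IPTG, 0.2% rhamnose). Fitness is the DiMSum error-weighted combination of wild-type-normalised replicate fold changes, kanamycin versus none.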

± gives the uncertainty stated by the source.

For the sequence AUUAAGCAAUAUUACGCCGU, the “self-splicing fitness (ln)” value runs as follows: (30 °C) -0.62 ± 0.1; (37 °C) -0.369 ± 0.14.

With GAUUAGCAAUAUUACGUGCA, the “self-splicing fitness (ln)” value was -1.7 ± 0.14 (30 °C) and -0.0754 ± 0.09 (37 °C).

For CAUAAGCAAUAUUACGUGCU, the “self-splicing fitness (ln)” value reads like this: (30 °C) -3.19 ± 0.3; (37 °C) -1.89 ± 0.27.

For the sequence GGAUAGCAAUAUUACGAACA, the “self-splicing fitness (ln)” value is, setting by setting: (30 °C) -1.95 ± 0.19; (37 °C) 0.22 ± 0.15.

Turning to AUGGAGCAAUAUUACGGCCG, the “self-splicing fitness (ln)” value (30 °C) is -1.27 ± 0.11 and the “self-splicing fitness (ln)” value (37 °C) is -0.481 ± 0.19.

Consider CCUCAGCAAUAUUACGUCGA, for which the “self-splicing fitness (ln)” value was -3.67 ± 0.27 (30 °C) and -2.28 ± 0.2 (37 °C).

For UAAGAGCAAUAUUACGGUAG, the “self-splicing fitness (ln)” value (37 °C) was -2.57 ± 0.35.

Consider GCUUAGCAAUAUUACGGCAG, for which the “self-splicing fitness (ln)” value is, setting by setting: (30 °C) -4.61 ± 0.46; (37 °C) -2.63 ± 0.34.

For UAGAAGCAAUAUUACGUAGU, the “self-splicing fitness (ln)” value (30 °C) was -3.71 ± 0.25 and the “self-splicing fitness (ln)” value (37 °C) is -2.01 ± 0.22.

Turning to GCAUAGCAAUAUUACGCCAU, the “self-splicing fitness (ln)” value is -4.39 ± 0.46 (30 °C) and -2.23 ± 0.28 (37 °C).

For the sequence CCCUAGCAAUAUUACGGGUC, the “self-splicing fitness (ln)” value by setting is: (30 °C) -3.26 ± 0.14; (37 °C) -2.65 ± 0.2.

ACCAAGCAAUAUUACGCUUC: the “self-splicing fitness (ln)” value (30 °C) is -3.27 ± 0.15 and the “self-splicing fitness (ln)” value (37 °C) was -1.71 ± 0.12.

As to GAGCAGCAAUAUUACGCUAC, the “self-splicing fitness (ln)” value (37 °C) was -1.95 ± 0.33.

With CGGAAGCAAUAUUACGCGUC, the “self-splicing fitness (ln)” value runs as follows: (30 °C) -2.62 ± 0.14; (37 °C) -3.1 ± 0.37.

For UACUAGCAAUAUUACGGUCC, the “self-splicing fitness (ln)” value was -1.59 ± 0.14 (30 °C) and -0.676 ± 0.16 (37 °C).

Regarding ACAGAGCAAUAUUACGGUUG, the “self-splicing fitness (ln)” value reads like this: (30 °C) -3.68 ± 0.24; (37 °C) -3.02 ± 0.22.

For GGGUAGCAAUAUUACGACAC, the “self-splicing fitness (ln)” value (30 °C) is -0.676 ± 0.33 and the “self-splicing fitness (ln)” value (37 °C) was -0.155 ± 0.35.

Consider UCUGAGCAAUAUUACGUGGC, for which the “self-splicing fitness (ln)” value reads like this: (30 °C) -3.1 ± 0.25; (37 °C) -1.94 ± 0.23.

Regarding GUGUAGCAAUAUUACGUACC, the “self-splicing fitness (ln)” value is, setting by setting: (30 °C) -1.2 ± 0.29; (37 °C) -0.885 ± 0.37.

Consider AGUGAGCAAUAUUACGUCUU, for which the “self-splicing fitness (ln)” value is -1.07 ± 0.082 (30 °C) and -1.31 ± 0.1 (37 °C).

GUAUAGCAAUAUUACGACUC: the “self-splicing fitness (ln)” value by setting is: (30 °C) -0.23 ± 0.14; (37 °C) 0.0743 ± 0.23.

Consider GGGUAGCAAUAUUACGGCGC, for which the “self-splicing fitness (ln)” value runs as follows: (30 °C) -0.217 ± 0.12; (37 °C) -1.14 ± 0.12.

In the case of GUGAAGCAAUAUUACGAGUA, the “self-splicing fitness (ln)” value is -1.84 ± 0.13 (30 °C) and -1.47 ± 0.16 (37 °C).

Consider CGGUAGCAAUAUUACGGAUG, for which the “self-splicing fitness (ln)” value is -0.393 ± 0.063 (30 °C) and 0.221 ± 0.096 (37 °C).

Consider CCGCAGCAAUAUUACGAGCC, for which the “self-splicing fitness (ln)” value is, setting by setting: (30 °C) -3.64 ± 0.23; (37 °C) -2.09 ± 0.2.

With GGGUAGCAAUAUUACGGAUU, the “self-splicing fitness (ln)” value runs as follows: (30 °C) -0.431 ± 0.19; (37 °C) -0.333 ± 0.23.

In the case of CUAGAGCAAUAUUACGGGUU, the “self-splicing fitness (ln)” value reads like this: (30 °C) -4.2 ± 0.29; (37 °C) -2.33 ± 0.23.

With CUGGAGCAAUAUUACGACUC, the “self-splicing fitness (ln)” value (37 °C) is -2.39 ± 0.41.

For the sequence UUGUAGCAAUAUUACGCUCU, the “self-splicing fitness (ln)” value runs as follows: (30 °C) -1.21 ± 0.2; (37 °C) -1.29 ± 0.15.

As for UACCAGCAAUAUUACGCGAU, the “self-splicing fitness (ln)” value runs as follows: (30 °C) -2.6 ± 0.17; (37 °C) -0.608 ± 0.15.

Consider GGGCAGCAAUAUUACGCCGA, for which the “self-splicing fitness (ln)” value runs as follows: (30 °C) -0.407 ± 0.078; (37 °C) 0.467 ± 0.1.

For CCAGAGCAAUAUUACGGGAU, the “self-splicing fitness (ln)” value by setting is: (30 °C) -4.38 ± 0.3; (37 °C) -2.48 ± 0.18.

For the sequence CACUAGCAAUAUUACGCGCU, the “self-splicing fitness (ln)” value runs as follows: (30 °C) -3.62 ± 0.16; (37 °C) -2.09 ± 0.14.

Turning to GGGCAGCAAUAUUACGCACG, the “self-splicing fitness (ln)” value is, setting by setting: (30 °C) 0.202 ± 0.26; (37 °C) -1.16 ± 0.19.

Consider UGAGAGCAAUAUUACGUCAC, for which the “self-splicing fitness (ln)” value (30 °C) is -2.08 ± 0.4.

For the sequence ACGUAGCAAUAUUACGUCAC, the “self-splicing fitness (ln)” value (37 °C) is -1.67 ± 0.4.

For CAUAAGCAAUAUUACGUAUA, the “self-splicing fitness (ln)” value was -3.21 ± 0.12 (30 °C) and -2.32 ± 0.13 (37 °C).

As for UCUAAGCAAUAUUACGCGCU, the “self-splicing fitness (ln)” value was -4.34 ± 0.46 (30 °C) and -1.6 ± 0.27 (37 °C).

Consider UAUGAGCAAUAUUACGGACC, for which the “self-splicing fitness (ln)” value is -2.56 ± 0.41 (30 °C) and -2.43 ± 0.31 (37 °C).

The values are drawn from the supplement of paper PMC7877785.
